Laboratory results from patent publication US20140193915, “COMPOSITIONS AND METHODS FOR CUSTOM SITE-SPECIFIC DNA RECOMBINASES” (Monsanto Technology, LLC, published 2014).
Where a chain is given by its changes, count along the chain named.

Assays:
Assay in all cases: cell_activity; E. coli
[1] = biological target: T1, pN-TALER IV-1-EE2 (GinL7C7-EE2-TALE13) (synthetic); settings: tags: 6-His
T1 chain: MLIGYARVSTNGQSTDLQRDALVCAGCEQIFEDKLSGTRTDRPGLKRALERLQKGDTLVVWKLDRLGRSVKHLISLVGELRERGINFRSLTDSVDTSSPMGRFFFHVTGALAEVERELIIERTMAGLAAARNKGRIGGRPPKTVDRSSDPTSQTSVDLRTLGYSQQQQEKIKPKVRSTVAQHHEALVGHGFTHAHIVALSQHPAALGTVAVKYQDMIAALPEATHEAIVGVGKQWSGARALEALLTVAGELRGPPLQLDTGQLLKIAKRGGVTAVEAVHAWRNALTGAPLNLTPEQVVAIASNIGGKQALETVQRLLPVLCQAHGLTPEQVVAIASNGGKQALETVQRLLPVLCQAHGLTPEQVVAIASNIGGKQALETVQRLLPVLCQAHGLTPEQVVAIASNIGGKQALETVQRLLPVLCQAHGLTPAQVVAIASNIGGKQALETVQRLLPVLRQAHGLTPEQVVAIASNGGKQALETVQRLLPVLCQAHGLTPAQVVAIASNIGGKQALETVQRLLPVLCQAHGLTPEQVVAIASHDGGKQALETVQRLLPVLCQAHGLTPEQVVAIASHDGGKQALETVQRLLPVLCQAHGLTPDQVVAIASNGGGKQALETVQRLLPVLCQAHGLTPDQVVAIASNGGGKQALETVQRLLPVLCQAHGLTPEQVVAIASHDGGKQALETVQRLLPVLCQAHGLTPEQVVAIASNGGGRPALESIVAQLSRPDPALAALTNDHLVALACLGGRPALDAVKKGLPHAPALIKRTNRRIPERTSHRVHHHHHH
Source text: (§1) To determine how much of the Gin20 sequence is required for recombination when the central sequence is maintained at a permitted length, N-TALER reporters were generated with a 20 bp recombinase central sequence between the TALE binding sites, where either the central 12 bp, or the central 10 bp, or the central 8 bp of the recombinase core sequence were held constant, and the remaining nucleotides were different from the Gin sequence. The N-TALER reporter with 12 bp was designated R45, the N-TALER reporter with 10 bp was designated R46, and the N-TALER reporter with 8 bp was designated R47. A N-TALER reporter with a 10 bp site 1 and a 12 bp site 2 was designated R46B, and a N-TALER reporter with a T and an A flanking the central AT di-nucleotide was designated R48 (see Table 33). The various reporters, including the pSC101 Gin20TALE13+0 were co-transformed with either sN-TALER-IV-1 or pN-TALER-IV-1 and recombination, as determined by colony color, was scored (Table 33). For purposes of comparison, the GinE site that was used in the generation of the GinL7C7-EE2 recombinase domain (Gersbach et al., 2010) was also included.
(§2) To confirm that white colonies resulted from recombination, the colonies were analyzed by colony PCR and sequencing of the PCR product. For the reporter that retained 12 bp from the Gin site, 8 of 8 colonies analyzed had the predicted recombination product for both the sN-TALER-IV-1 chimera and the pN-TALER-IV-1chimera (16 colonies total analyzed, 8 each). Likewise, for the reporter that retained 8 bp from the Gin site co-transformed with the pN-TALER-IV-1 chimera, 14 of 14 colonies analyzed had the predicted recombination product.

[2] = biological target: T2, sN-TALER IV-1 (GinH106Y-TALE13) (synthetic); settings: tags: 6-His; chain copies: 2 per site, tetramer in synapsis (stated)
T2 chain: T1 chain with A6V, G12D, S14N, D20N, E50K, V70M, V94I, H106Y, T108M, V114M
Source text: as §1, §2

[3] = biological target: T1, pN-TALER IV-1-EE2 (GinL7C7-EE2-TALE13); settings: tags: 6-His
Procedure: (§3) To test for recombination, E. coli DH5alpha cells were co-transformed with different combinations of TALER expression construct and TALER reporter construct pairs (Tables 6 and 7). The N-TALER expression and reporter constructs were in an approximate 1:1 mass ratio during the transformation. The co-transformed bacteria were plated on media with chloramphenicol, kanamycin, and X-gal then incubated at 37° C. for 18 to 36 hours. Control samples consisted of transformations using the reporter construct alone. Control transformants were similarly plated. The bacterial transformation protocol was either heat shock or electroporation per standard molecular biology techniques.
Two additional N-TALERs, based on N-TALER IV-1, were constructed wherein the GinH106Y recombinase catalytic domain was replaced with either the GinL7C7-EE2 catalytic domain or the GinL7C7-EE3 permissive recombinase catalytic domain. These N-TALERs were labeled pN-TALER IV-1-EE2 (SEQ ID NO:41) and pN-TALER IV-1-EE3 (SEQ ID NO:45), respectively. pN-TALER IV-1-EE2 was tested in combination with seventeen N-TALER reporter constructs and pN-TALER IV-1-EE3 was tested with three reporter constructs (Table 10).

sN-TALER IV-3 = biological target: T3, sN-TALER IV-3 (synthetic); settings: tags: 6-His
T3 chain: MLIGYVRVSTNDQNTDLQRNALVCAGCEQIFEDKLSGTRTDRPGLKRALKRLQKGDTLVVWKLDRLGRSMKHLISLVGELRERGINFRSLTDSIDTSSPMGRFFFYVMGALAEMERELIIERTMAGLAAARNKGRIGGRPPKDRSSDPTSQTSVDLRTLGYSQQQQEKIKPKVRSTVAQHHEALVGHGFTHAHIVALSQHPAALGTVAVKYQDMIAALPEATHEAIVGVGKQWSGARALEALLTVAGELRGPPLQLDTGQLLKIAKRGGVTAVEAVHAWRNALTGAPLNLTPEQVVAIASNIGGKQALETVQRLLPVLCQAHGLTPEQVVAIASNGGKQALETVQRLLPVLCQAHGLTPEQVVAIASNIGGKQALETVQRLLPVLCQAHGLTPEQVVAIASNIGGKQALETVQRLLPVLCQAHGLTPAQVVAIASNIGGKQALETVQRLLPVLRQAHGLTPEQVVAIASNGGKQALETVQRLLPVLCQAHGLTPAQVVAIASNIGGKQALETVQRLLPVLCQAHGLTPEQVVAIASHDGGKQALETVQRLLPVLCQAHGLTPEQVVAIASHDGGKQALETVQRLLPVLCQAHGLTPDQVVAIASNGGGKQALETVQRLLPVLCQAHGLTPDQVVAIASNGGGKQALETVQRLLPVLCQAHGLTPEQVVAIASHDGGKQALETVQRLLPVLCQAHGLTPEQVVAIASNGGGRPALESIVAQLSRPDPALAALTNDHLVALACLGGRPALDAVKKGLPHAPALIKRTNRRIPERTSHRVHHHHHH
Procedure: as §3

[4] = biological target: T4, sN-TALER IV-2 (GinH106Y-TALE13) (synthetic); settings: tags: 6-His
T4 chain: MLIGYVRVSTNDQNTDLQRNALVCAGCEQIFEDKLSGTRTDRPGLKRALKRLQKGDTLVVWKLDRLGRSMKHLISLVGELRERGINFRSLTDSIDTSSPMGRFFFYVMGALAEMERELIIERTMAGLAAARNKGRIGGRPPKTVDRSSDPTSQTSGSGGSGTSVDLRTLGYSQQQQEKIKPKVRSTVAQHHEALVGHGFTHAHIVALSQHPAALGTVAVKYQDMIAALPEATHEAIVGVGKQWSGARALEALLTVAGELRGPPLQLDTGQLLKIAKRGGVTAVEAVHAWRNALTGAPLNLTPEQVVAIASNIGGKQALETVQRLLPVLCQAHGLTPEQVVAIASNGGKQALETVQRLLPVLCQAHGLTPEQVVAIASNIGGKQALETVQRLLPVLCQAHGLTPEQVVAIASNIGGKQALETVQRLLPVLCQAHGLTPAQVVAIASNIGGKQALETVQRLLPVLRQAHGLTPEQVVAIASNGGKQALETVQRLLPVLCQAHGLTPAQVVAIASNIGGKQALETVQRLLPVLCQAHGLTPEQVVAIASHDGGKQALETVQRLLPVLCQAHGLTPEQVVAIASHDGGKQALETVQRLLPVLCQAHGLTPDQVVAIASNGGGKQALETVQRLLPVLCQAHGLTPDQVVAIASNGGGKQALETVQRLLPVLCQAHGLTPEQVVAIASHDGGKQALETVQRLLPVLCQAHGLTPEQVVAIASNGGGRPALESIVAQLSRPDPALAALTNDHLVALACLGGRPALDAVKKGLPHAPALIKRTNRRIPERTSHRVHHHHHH
Procedure: as §3

[5] = biological target: T2, sN-TALER IV-1 (GinH106Y-TALE13); settings: tags: 6-His; chain copies: 2 per site, tetramer in synapsis (stated)
Procedure: as §3

B1: R45 (12bp) (dsDNA)
DNA 1: AGAAGGTATTTATATCTCAAACCATGGTTTCACTTATAAATACCTTCT
DNA 2: B1 DNA 1 with T15A, C16G, C18G, C31G, C33G, T34A
B1 was tested, and the activity [1] was 1 score and the activity [2] was 1.5 score.

B2: R46 (10bp) (dsDNA)
DNA 1: B1 DNA 1 with A19T, T30A
DNA 2: AGAAGGTATTTATAAGTGTAACCATGGTTAGAGATATAAATACCTTCT
With B2 the activity [1] was 1.5 score and the activity [2] was 4.5 score.

B3: Gin20TALE+12 (dsDNA)
DNA 1: AGAAGGTATTTATATAGGCACACTTATCCAAAACCATGGTTTACAGGACCACACGGTATATAAATACCTTCT
DNA 2: AGAAGGTATTTATATACCGTGTGGTCCTGTAAACCATGGTTTTGGATAAGTGTGCCTATATAAATACCTTCT
B3 gave an activity [3] of 2 score, an activity (sN-TALER IV-3) of 1 score and an activity [4] of 1 score. It also gave an activity [5] of 2 score.

B4: R48 (dsDNA)
DNA 1: AGAAGGTATTTATATCCAAAACTATAGTTTACAGTATAAATACCTTCT
DNA 2: AGAAGGTATTTATACTGTAAACTATAGTTTTGGATATAAATACCTTCT
With B4 the activity [1] was 1.5 score and the activity [2] was 4.5 score.
